In experiment [1] the target is T1, Macaque (Macaca fascicularis) CTLA-4 on HEK293 cells (Macaca fascicularis, UniProt G7PL88 36-223).
T1 construct: whole, on cells; also called macaque CTLA-4
The experiment can be described thus: flow cytometry on HEK293 cells transiently expressing macaque CTLA-4, reference tremelimumab. How it is done:
Macaque (Macaca fascicularis), pig (Sus scrofa) and mouse (Mus musculus) CTLA-4 proteins were transiently expressed on the surface of HEK293 cells. […] Binding was measured using FACS and analyzed.

Experiment [2] addresses non-recycling version of CTLA-4 on CTLA-4 effector cells (Promega CS186920) (human, UniProt P16410 36-223). Nature of the experiment: cell-based or functional assay.
For experiment [3], the target named is T2, human CTLA-4 expressed on cells (human, UniProt P16410 36-223).
T2 construct: whole, on cells; On stably or transiently transfected HEK293 cells; also called hCTLA-4; HEK293-hCTLA-4 cells
The experiment can be described thus: flow cytometry on HEK293-hCTLA-4 cells. Here is the method: To test the binding of antibodies to CTLA-4 under more physiological conditions, the binding of CTLA-4 antibodies to cell-surface CTLA-4 was tested. […] The surface expression of hCTLA-4 in the obtained cell line was tested using a commercial anti-CTLA-4 antibody and compared to the parent cell line (HEK293 without transfection). […] The anti-CTLA-4 antibodies were incubated in serial dilution concentrations with the HEK293-hCTLA-4 cells for 1 hour on ice. Following a wash step, an anti-human antibody conjugated to ALEXA FLUOR® 647® was added for an additional hour. The cells were washed, and propidium iodide (PI) was added to exclude dead cells. The fluorescent signal was measured using FACS and analyzed. Dead cells were removed based on the PI signal. The population was gated based on forward and side scatter (FSC and SSC) parameters, and doublets were removed. The Median Fluorescent Intensity (MFI) of the appropriate channel was calculated for the live single cells from each group. The MFI was plotted versus antibody concentration in Prism software (V6.01) and kinetic parameters were obtained using a curve fit dose response function with four parameters. […] The lower EC₅₀ values indicate increased binding affinity to cell surface hCTLA-4.

Chain of non-recycling version of CTLA-4 on CTLA-4 effector cells (Promega CS186920) (P16410 36-223): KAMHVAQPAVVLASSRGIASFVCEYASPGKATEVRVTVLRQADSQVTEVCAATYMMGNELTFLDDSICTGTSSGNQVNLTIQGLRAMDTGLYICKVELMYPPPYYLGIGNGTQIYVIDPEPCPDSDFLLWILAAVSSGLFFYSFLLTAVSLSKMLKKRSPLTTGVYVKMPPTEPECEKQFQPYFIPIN
T2 sequence (P16410 36-223): as above
T1 sequence (G7PL88 entry or part of it): as the sequence (P16410 36-223) above, with S14N, I18T, L106M counted along it

B1: Ab55h (antibody, V domains shown)
VH: QVQLQESGPGLVKPSETLSLTCAVSGYSISGDYYWGWIRQPPGKGLEWIGSIYHSGYTYYNPSLKSRVTISVDTSKNQFSLKLSSVTAADTAVYYCARDSGWYVIAFDYWGQGTLVTVSS
VL: EIVMTQSPATLSVSPGERATLSCRASQSVSSNLAWYQEKPGQAPRLLIYGASTRATGIPARFSGSGSGTEFTLTISSLQSEDFAVYYCQQYNNWPPLTFGGGTKVEIK
notes: Human form, compared with an hIgG1 isotype control
With B1, the “Ratio Tremelimumab:Ab55h of EC50” value in experiment [1] came out at 1.7 fold. In addition, in experiment [2], the “NFAT reporter EC50” value was found to be 0.63 nM and the “NFAT reporter EC50, Ratio Ipilimumab:Ab55h” value was determined as 3.65 fold. For the same molecule, the half-maximal effective concentration (EC50) in experiment [3] came to 0.17 nM.
